Measured values taken from paper PMC8674358.
Several values for one entry are separate records, joined by “and”; a condition that tells them apart may be missing. Identical values can stand only once.

Assays:
[1] = target: IRE1-KR-0P: human IRE1α kinase-endoribonuclease module (residues G547-L977), unphosphorylated (human) (UniProt O75460); assay: cross-linking; 1 μg IRE1-KR (~0.8 μM) or various concentrations in RNA cleavage buffer (20 mM HEPES pH 7.5, 50 mM K acetate, 1 mM Mg acetate, 0.05% Triton X-100), 250 μM DSS, 1 h on ice; SDS-PAGE and IRE1α immunoblot; also with CRUK-3 (5 µM), which augmented KR-0P dimerization and oligomerization
[2] = target: IRE1-KR-3P: human IRE1α kinase-endoribonuclease module (residues G547-L977), fully phosphorylated (human) (UniProt O75460); assay: as above

stoichiometry N [1] | stoichiometry N [2] | Substance
2 | – | IRE1-KR-0P: human IRE1α kinase-endoribonuclease module (residues G547-L977), unphosphorylated (from UniProt O75460 547-977) (domain or fragment)
– | 2 and 4 and 6 | IRE1-KR-3P: human IRE1α kinase-endoribonuclease module (residues G547-L977), fully phosphorylated (from UniProt O75460 547-977) (domain or fragment)
